# Data: the DeepSol protein solubility set
# Test: soluble on expression in E. coli; label from the status in PepcDB or PDB records
row,Sequence,soluble on expression in E. coli
1,MSLELKVHETILEVNLGAMVANLNHYRSMLKPETKMVCMVKASAYGAGSYEIAKTLQEHHADYLAVAVADEGSDLRKAGITASIIIMDPELTAFKTMFDYKLEPEVYNFHLLDALIKAAEKEGITNFPIHVKLDTGMHRLGFEEKDIPQLIRRLKNQNALIPRSVFSHFVGSDSAQFDAFTRQQIERYEKMSKELQDAFPHKILRHICNTAGIERFPGAQFDMVRLGIGLYGISPIDNSIINNVSTLKTTILQIRDVAEEDTVGYSRKGHLIRPSRIAAIPIGYADGLNRHLGCGHGYCLVNGKKAPYVGNICMDVCMIDVTDIDCREGDQAIIFGDELPITALSDALETIPYEVLTGISTRVKRVYYQDEGHHHHHH,soluble
2,SGAAAAEADRTLFVGNLETKVTEELLFELFHQAGPVIKVKIPKDKDGKPKQFAFVNFKHEVSVPYAMNLLNGIRLYGRPIKIQFRSGSSHAPQDVSLSYPQHHVGNSSPTSTSPSRYERTMDNMTSSAQIIQRSFSSPENFQRQAVMNSALRQMSYGGKFGSSPLDQSGFSPSVQSHSHSFNQSSSSQWRQGTPSSQRKVRMNSYPYLADRHYSREQRYTDHGSDHHYRGKRDDFFYEDRNHDDWSHDYDNRRDSSRDGKWRSSRH,soluble
3,MRILSLSFSNLNSLKGEWKIDFSASPFAENGLFAITGPTGAGKTTILDAICLALYHKTPRLGGISTSSNEIMTRGTAECSAEVEFEVKGKAYRAFWSQRRSRGKVDGNLQAATVELAEVDSEKVLATQVKKKDELINTITGLDFSRFTKSMMLSQGQFAAFLNADANDRAGLLEELTGTEIYGQISEKVHEHYTASKQKLAELKAKAEGVELLSEEDKQALIDEQTELQANQKQQQAQL,not soluble
4,MKANKVLFITQEITPYVPESEMANMGRFLPQAIQEKGREIRTFMPKWGNVNERRNQLHEVIRLSGMNLIIDDTDHPLIIKVASIQAARMQVYFIDNDDYFQHRQMVADENGVEYKDNDERAIFYARGVLETVKKLRWCPDIIHCQGWMSAFVPLYIKKAYQDEPSFRDSKVVFSVFEDDFKSDCEGNLTEKLMLKGIEKNDVESIVKSPANYEELCKLAIAYSDGVIQNSEKVNENVMKFARESGVPVLDYQPADTYVDAFNEFYDKVWEFEKK,not soluble
5,KLRQWLIDQIDSGKYPGLVWENEEKSIFRIPWKHAGKQDYNREEDAALFKAWALFKGKFREGIDKPDPPTWKTRLRCALNKSNDFEELVERSQLDISDPYKVYRIVPE,soluble
6,MRNSTDYSPLYRSFIGFDHLASLIDKASQPGKQSSYPPYNIELLAENQYRITMAVAGFREEDIDIESKDNGLIIVGTKQPPANSTQESEATTRHFLHQGIAERNFERKFQLGEHVKVIGAFMENGLLHVDLEREIPEALKSRKIAINGKSLLNGNS,not soluble
7,MNYPMIAGRVFGTPLLVDPVKGAAFLAGLGPRLVNGALELRGLEELAPDRVAEAGRIAPRASVLLDDAGDARREAGRPLYLVEGGVAVIEVTGTLVHRGGWIGQSSGTTSYEGLMAQISAAVADPSVRGIALEIDSYGGEVAGLFDLADAIRAARAVKPVRAFVAEAALSAAYAIASQAERIVLPRTGAVGSIGVLLVHADFSQAMADRGVAVTLIHAGRHKVDGNPYEALPEGVRADLQARVEASRALFAETVAAGRGARLSRQQALATEAQVLDGAAAVAAGLADEVSDLRRAFAAFRAELFDPHLTSPRAGTPAAAKETPTMTDETTTGAARGTAAEGSAPPMETAEGSGGGAPAANVAVAEAAELIEIGQQAARLGLAVDVADAMRRGLSAAALRRTVLDGLAARGDGADLVAHAPTAAAGPKESPLLAAARRTAEAQAASRRA,not soluble
8,MKIALIGITGRVGSRLADELLRRGHHVTGIARDPASVRPQPNLTARQGDAAVPEDLAPILAGHDAVISAARFVSLDAKPLLAAIRQAGVPRLLVVGGAGSLQVAPGVALIDTPEFPDAYKPEARAGVVFLDTLRREQEVEWTFLSPSALFEPGERTGEFRLGADLLLADDEGKSWISMEDYAIALVDELETPRHARRRFTVGYLEHHHHHH,not soluble
9,MGSDKIHHHHHHMNKMKIAHLTSAHPRHDIRIFVKECSSLAAAGHEVTLIVADGQGEEIRNGVRIHDVGPKRGGRLARMTGTVKRVYQAALRLRPDVVHFHDPELIPAGVRLKQAGIKVVYDVHEDVPRQILAKHWIPGAVRPLVSGGFETLEDWAARRFDAIVTSTPHIRKRFERLGANALDVCNFPILEELVRDTPWESRRNEVCYIGGISRIRGIEPIVAALPDTSTRLNLAGPWSESDLRAKVTAEPGWARVNDLGVLDRKGVAEVLARSKIGLVTLFPTPNYVDALPIKLFEYMAAGMPVIASDFPVWREIVADAGCGVLVDPQDAAAIAAAINELLGDEERMRKLGESGKRAVLSKYSWAAEADKLVALYASL,not soluble
10,MDSLKCQVDNTVASHNVTIDKSSQDDNHIDNRRYYINIGNTKDSEEVARLQKLILTQNEAESKRTMELLALLNLKNNPEEQKKASAVGPAVDVAQNLRHLSASAGGTRRLRSCHGTYLRAYDKGLKVDMKTGAPGTWENWWVEDRKGKVVFKAIHSPGIFLSAQGNNQLTLDYHVNASEFWTPKKNDNGSWSFQSANGTWLSAHKDGRACLQPHRQAWEEFWLEWW,not soluble
11,MPEITVLMPVRNGERYIKESIDSVLNQTLTDFEFLIIDDGSTDRTVEIIQGYTDKRIRLVRKEHQFIQNLNEGLELASGSYIARMDADDIMHTERLRIQLKRMKKNPDITVCGTWAKIFSDKGNERNVSHLGYGIIHEPVLELLKYNMLLHPSVMIKKEFLLNHHIEYQNYPCVEDYKLWFDIAKAGGILFVEPQELLMFRRSDTQVTVTKKKEMSLGSIRLRKEILLYLLSIYNNKTLNSLLSDFENLEKNKWMSNEDIFRFFVNLFNRIQRDTMVLEHHHHHH,soluble
12,MKFGPASPKDAIGGVTVHTLRQGPLVLKKGTTIGPAEVEALERAGIKDVVVVRMEEGDVSEDVAAASIALAVGGEGIHVERAFTGRANLFAARPGVLVIDRAAVDRINNIDEAITFATLTAYKPVVEGEMVGTVKIIPFGVEGALRDAAVKAAGRDVLKIAPYAIKRVGVVSTLLPGLSSKVIDKTLRVTAERLAPSGAGIIAERRVQHDEHALSAAIKELLALGAELVIVFGASAIADRRDVIPAAVTGIGGEIEHFGMPVDPGNLLLIARAEGVPVLGAPGCARSPVENGFDWVLMRLLAGIKVTRAELMGMGVGGLLMEIVTRPQPRARPEIEGNSQVAAIVLAAGRSTRMGGPNKLLAELDGKKLVRIATEQALASKASEVIVVTGHQTELVEQALQGLKVKFARNPDFAGGIASSVKAGIAAVPEACDGAVVCLGDMPLIDAGLIDRLIDSFAPDRGNLIVVPVSEGRRGNPVLWSRRFFRELMTLDGDVGARHLIAKHTEAVAEVPVDGEGAFLDIDTPQALEAARRGLEHHHHHH,not soluble
13,VILKDALLMGTKLLKSADIDTPALEAGVLLCRVLNVDRSYLYSHDDYNMTEEEYKKFTLFLEERIKGKPLQYITGHQEFMSLDFIVTPDVLIPRQDTETLVEAVLTHVKSTGLENARILDIGTGSGCIAVSLAHFLKDSRVLALDISEKALEIAETNAKRCGVWDRMFFLKGDALEGLAGIIAQSPFAKDFERKGEGFFDIIVSNPPYIPSEEIKTLHKQVKDYEPRTALDGGIDGLDFYRAITCEAAKLLSTDSLLAFEVGYNQAENVSEFMKESFSAIKVVKDLAGIDRVVMGCRKQLKD,soluble
14,MSLMYGYPEKWLEGMTTGEGIAAELRLGIVNGHIAEGTLLTENQMAKQFNVSRSPIRDAFKLLQQNQLIQLERMGAHVLPFGEQEKKEMYDLRLMLESFAFSRVKNQERLPIVKEMKKQLEMMKVAVKFEDAESFTKHDFEFHETLIKASNHQYLNSFWSHLKPVMMALVLTSMRQRMQQNPQDFERIHHNHQVFIDAVEQYDSQILKEAFHLNFDDVGKDIEGFWLNEGHHHHHH,soluble
15,MGSDKIHHHHHHMLELGQTPNAAPDAAPADLIKDTTDATFMADVVDASQTTPVIVDFWAPWCGPCKTLGPQLEAAVTAAKGKVRMVKVNVDENQQIAAQLRVQSIPMVYAFVDGQPIDGFQGAVPESQIKDFVTKLAAMSKEDGGLAEALEAAEEMLSMGEHDDAAQTFAAILGEEPENAAAMGGLARAHLAMGQVDEAEQLLSTAPDAIFNAPELEAVRAQIELARQAESAGPLAELQAAVDANPDDHAARFELAQALHANGDVEQAVDQLLELFRRDREWEDAKAKTQLFTIFDALPPQDPIALTGRRRLSSMIFA,not soluble
16,NLKDVEHVVILMQENRSFDHYFGTLKGVRGFGDRMAIPLPDGQRVWHQKGSKGEILPYHFDTSTTSAQRVDGTPHTWPDAQQAWNEGRMDKWLPAKTERSLGYYKEQDIAFQFAMANAFTICDAYHCSFQGGTNPNRLFLWTGTNDPLGQHGGPVTTNDHDSNGPVEQGYTWTTYPERLQAAGITWRVYQDMADNFSDNPLIGFRQYRAAAPDSPLIVNGLSTWKLDALKRDVLANSLPQVSWIVAPAKYSEHPGPSSPIWGAEYTSWVLDALTANPEVWSKTALLVMFDENDGFFDHVAPPAAPSLNKDGTLRGKTTADATLEWHTKGDIRYRNQPYGLGPRVPMYVISPWSKGGWVNSQVFDHTSVIRFLEQRFGVMEPNISPWRRAVCGDLTSAFNFANPNNEPFPELPDTSQADAIVASQIKLPKPKPPAVAAMPKQEMGIRPARALPYELGVHARYRSGGDALSLTFANTGKAGAVFQVFDLLDSENPPKRYTVGARKRLHDSFQGDASGDYHLEVHGPNGFLRVFRGNLRRDLAERKAPLPEVRIDYEPLFGNLRVQLINRGRHPVKLTVKDNVYRQGERRTVNVPPGQRREVRYSLRSSGNWYDFSVSAQGADSFLRRFSGRMEDGRSGFSDPGMGLGTLTF,not soluble
17,DTTYGCPGEWRCLKAAALGEGKFDEPVRVIGFVRCECPGNTLVPNIGMTMKLSEVKPDAIYFSSCMLRDPGCPYRSAEEWAKIVENAFQIPVKLGTH,not soluble
18,MSDENLETESTSKALEDILSYTDSPAFRHIFSFFLGRPRIRAKSTLNLDILSEEVVIRKGKLIHTWQNARAVFYNSNIRLQTKNNQDEALQIRNMKVDVHESKRGRALRLKDDDVCYLIIFQRPNILEAWLTRAQQVEKSNHVDASDEQLTLIPEQILNNEARVQILNLRRNSLISRPPTEKSMAPLGYIDDLYRVHSLQVIDLSANQILSFPIQLTLLSHLRQLNLSSNYISSVPSECSNMRRLQYLNLSNNQLDTLPDSISELQNLQSLDISFNQFSQIPPCLFHLTLEMWRLAGNNIEKIDRVGEMQIQKIDLRRNVLDTSFRLDIENITHLDLRDNSMISTVHLTNLRFLKVIHCERLQLSSLHLSGESLTHVYADHNLLDSLVVMPLPQNLQTLSLSFNHFRNLPDWISDCPNLTFLRANNNSLVALPERIFYSQSLRSIFAFINEIEHIPDFGEENCLETLILYKNKLSSLPKHFFSILPRLRQLNISSNFIELLPYFDGSSFCRLQILRCANNYLTENSVPVIVNMKHLKIIDLSHNRLNSFDDSALSSLELLEDLNLSSNRLTRLADCLALLPCLQVLRAHSNQLVHVPEFRASNQLHTIDVSSNNISLGTLQFKAPPNLRHFDVTCNSGDFDTENFPENAKMHSKMNTINISEGSQNLFGFQIGVSGSRGMKNKQCIRQVRVENTFGFIDGGSNSYMSSSICRFMTSYLKENVSMDIRSILLRCHCELGEEGERLGASVMIIRVHEKRLEIASTGTMSAAIARNQKLKMIINGRYEIDDDEYSRIREAHGFVDEENRINGVIGSSRQIGHFSTFPVVLPTHSYRNIQLNEQIEGLIVGNNMIWNMLSIDDLNSTFHNNRSPIVVAKKIQDQLQSYDYGGNSNILVLRRIKPQMTFNGFSTSSTKNQVTPDIAIPKIDEQLVLAVPALILPEYHPSPPVPPPIPAIRHRTPSPPPPPLPSSTPPPVSSEHEEINVRQSSTLSGGYTLSIDRFYSSSSTVSSRKQFNETRDLLSKSLKLSPPNTVTFNI,not soluble
